The source of these data is patent US20100068742.

Data set [1] deals with GST-ezrin (amino acids 1-586), P15311.
In data set [2] the target is T1, Nictide (RLGWWRFYTLRRARQGNTKQR).
T1 chain: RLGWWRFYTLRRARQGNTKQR

Data set [3] addresses T2, chicken maltose binding protein-MYPT (amino acids 714-1004), Q90623.
T2 chain: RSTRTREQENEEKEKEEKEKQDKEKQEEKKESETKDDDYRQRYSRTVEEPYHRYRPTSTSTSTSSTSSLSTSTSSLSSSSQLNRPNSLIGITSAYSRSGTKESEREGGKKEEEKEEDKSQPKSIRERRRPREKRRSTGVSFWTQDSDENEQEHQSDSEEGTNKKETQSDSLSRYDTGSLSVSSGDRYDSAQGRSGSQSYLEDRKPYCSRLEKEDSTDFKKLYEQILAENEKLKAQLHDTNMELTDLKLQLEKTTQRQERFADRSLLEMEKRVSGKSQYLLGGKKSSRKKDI

Data set [4] concerns the target LRRKtide with +1Leu mutated to Ala.
Data set [5] deals with LRRKtide with -2Tyr mutated to Arg.

Chain of GST-ezrin (amino acids 1-586), P15311 (P15311 whole entry, the tested form may be a part): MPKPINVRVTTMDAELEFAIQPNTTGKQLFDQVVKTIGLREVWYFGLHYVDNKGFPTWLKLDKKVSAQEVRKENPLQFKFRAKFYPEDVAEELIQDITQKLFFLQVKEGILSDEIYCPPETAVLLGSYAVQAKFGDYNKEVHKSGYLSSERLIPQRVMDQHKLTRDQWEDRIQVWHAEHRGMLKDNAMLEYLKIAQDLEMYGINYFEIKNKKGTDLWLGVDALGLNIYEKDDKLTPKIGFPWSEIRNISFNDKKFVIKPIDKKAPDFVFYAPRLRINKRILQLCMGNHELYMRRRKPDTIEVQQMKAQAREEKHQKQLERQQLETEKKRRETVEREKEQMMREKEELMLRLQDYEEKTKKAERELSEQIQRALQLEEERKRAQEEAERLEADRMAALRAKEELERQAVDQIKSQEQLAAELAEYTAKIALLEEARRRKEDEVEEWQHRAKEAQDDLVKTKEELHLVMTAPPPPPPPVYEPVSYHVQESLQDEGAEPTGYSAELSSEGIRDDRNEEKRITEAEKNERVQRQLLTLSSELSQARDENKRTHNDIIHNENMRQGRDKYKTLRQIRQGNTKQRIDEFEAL

B1: GST-LRRK2 1326-2527 [wild type] (protein)
chain: LKKAVPYNRMKLMIVGNTGSGKTTLLQQLMKTKKSDLGMQSATVGIDVKDWPIQIRDKRKRDLVLNVWDFAGREEFYSTHPHFMTQRALYLAVYDLSKGQAEVDAMKPWLFNIKARASSSPVILVGTHLDVSDEKQRKACMSKITKELLNKRGFPAIRDYHFVNATEESDALAKLRKTIINESLNFKIRDQLVVGQLIPDCYVELEKIILSERKNVPIEFPVIDRKRLLQLVRENQLQLDENELPHAVHFLNESGVLLHFQDPALQLSDLYFVEPKWLCKIMAQILTVKVEGCPKHPKGIISRRDVEKFLSKKRKFPKNYMSQYFKLLEKFQIALPIGEEYLLVPSSLSDHRPVIELPHCENSEIIIRLYEMPYFPMGFWSRLINRLLEISPYMLSGRERALRPNRMYWRQGIYLNWSPEAYCLVGSEVLDNHPESFLKITVPSCRKGCILLGQVVDHIDSLMEEWFPGLLEIDICGEGETLLKKWALYSFNDGEEHQKILLDDLMKKAEEGDLLVNPDQPRLTIPISQIAPDLILADLPRNIMLNNDELEFEQAPEFLLGDGSFGSVYRAAYEGEEVAVKIFNKHTSLRLLRQELVVLCHLHHPSLISLLAAGIRPRMLVMELASKGSLDRLLQQDKASLTRTLQHRIALHVADGLRYLHSAMIIYRDLKPHNVLLFTLYPNAAIIAKIADYGIAQYCCRMGIKTSEGTPGFRAPEVARGNVIYNQQADVYSFGLLLYDILTTGGRIVEGLKFPNEFDELEIQGKLPDPVKEYGCAPWPMVEKLIKQCLKENPQERPTSAQVFDILNSAELVCLTRRILLPKNVIVECMVATHHNSRNASIWLGCGHTDRGQLSFLDLNTEGYTSEEVADSRILCLALVHLPVEKESWIVSGTQSGTLLVINTEDGKKRHTLEKMTDSVTCLYCNSFSKQSKQKNFLLVGTADGKLAIFEDKTVKLKGAAPLKILNIGNVSTPLMCLSESTNSTERNVMWGGCGTKIFSFSNDFTIQKLIETRTSQLFSYAAFSDSNIITVVVDTALYIAKQNSPVVEVWDKKTEKLCGLIDCVHFLREVMVKENKESKHKMSYSGRVKTLCLQKNTALWIGTGGGHILLLDLSTRRLIRVIYNFCNSVRVMMTAQLGSLKNVMLVLGYNRKNTEGTQKQKEIQSCLTVWDINLPHEVQNLEKHIEVRKELAEKMRRTSVE
Take B1: the results for the “protein substrate phosphorylation (32P autoradiography)” value (“protein substrate phosphorylation” for short) in data set [1] and in data set [3] were “LRRK2 phosphorylated ezrin” and “did not phosphorylate MYPT”, respectively. In addition, in data set [2], the “Km of peptide phosphorylation” value is reported as “a similar Km”. The “fold decrease of Vmax against LRRK2[G2019S]” value in data set [2] is reported as ~2-fold lower Vmax.

B2: rat ROCK2 (amino acids 2-543) (protein)
chain: SRPPPTGKMPGAPEAAAGDGAGAGRQRKLEALIRDPRSPINVESLLDGLNSLVLDLDFPALRKNKNIDNFLNRYEKIVKKIRGLQMKAEDYDVVKVIGRGAFGEVQLVRHKASQKVYAMKLLSKFEMIKRSDSAFFWEERDIMAFANSPWVVQLFCAFQDDRYLYMVMEYMPGGDLVNLMSNYDVPEKWAKFYTAEVVLALDAIHSMGLIHRDVKPDNMLLDKHGHLKLADFGTCMKMDETGMVHCDTAVGTPDYISPEVLKSQGGDGYYGRECDWWSVGVFLFEMLVGDTPFYADSLVGTYSKIMDHKNSLCFPEDTEISKHAKNLICAFLTDREVRLGRNGVEEIKSASFFKNDQWNWDNIRETAAPVVPELSSDIDSSNFDDIEDDKGDVETFPIPKAFVGNQLPFIGFTYFRENLLLSDSPPCRENDAIQTRKSEESQEIQKKLYALEEHLSSEVQAKEELEQKCKSINTRLEKTAKELEEEITFRKNVESTLRQLEREKALLQHKNAEYQRKADHEADKKRNLENDVNSLKDQLEDL
Regarding B2, the “protein substrate phosphorylation” value in data set [1] is on record as “but barely ezrin”. In data set [4], the peptide phosphorylation entry is “abolished phosphorylation by ROCK2”. For the same protein, in data set [5], the “fold decrease of Km against wild type LRRKtide” value is recorded as “decreased the Km value over 60-fold” and the “fold increase of Vmax against wild type LRRKtide” value is given as “increased the Vmax over 5-fold”. For the same protein, the “protein substrate phosphorylation” value in data set [3] is reported as “ROCK2 phosphorylated MYPT”.
